Patent US20220185900A1 (Regeneron, published 2022)

T1: Macaca fascicularis (mf) RET.mmh (Macaca fascicularis)
T1 construct: also called monkey RET
T1 chain: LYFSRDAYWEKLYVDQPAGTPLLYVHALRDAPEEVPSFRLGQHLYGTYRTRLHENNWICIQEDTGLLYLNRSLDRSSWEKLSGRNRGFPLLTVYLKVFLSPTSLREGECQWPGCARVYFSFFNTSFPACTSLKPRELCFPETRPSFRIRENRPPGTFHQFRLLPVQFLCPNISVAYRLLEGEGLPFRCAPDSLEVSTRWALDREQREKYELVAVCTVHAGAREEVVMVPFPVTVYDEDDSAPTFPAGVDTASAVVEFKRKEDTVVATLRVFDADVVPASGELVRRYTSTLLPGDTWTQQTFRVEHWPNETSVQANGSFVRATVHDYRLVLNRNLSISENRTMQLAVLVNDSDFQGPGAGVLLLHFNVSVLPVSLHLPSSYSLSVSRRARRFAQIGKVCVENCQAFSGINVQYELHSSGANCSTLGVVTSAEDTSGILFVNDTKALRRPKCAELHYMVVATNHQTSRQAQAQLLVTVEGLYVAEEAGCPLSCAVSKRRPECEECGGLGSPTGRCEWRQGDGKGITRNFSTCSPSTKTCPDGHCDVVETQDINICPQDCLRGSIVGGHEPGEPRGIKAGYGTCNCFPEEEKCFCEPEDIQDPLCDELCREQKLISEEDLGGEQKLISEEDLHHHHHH


Experiments:
hRET.mmh [1] = target: T2, hRET.mmh (human, UniProt P07949 29-635, biotinylated in the ELISA of Example 4 (biot-hRET.mmh); not in the SPR of Example 3); experiment: SPR Biacore T200, mAb capture, 37 C
T2 construct: also called biot-hRET.mmh; soluble monomeric human RET
Description: (§1) Binding affinities and kinetic constants of human anti-RET antibodies were determined by surface plasmon resonance (Biacore T200) at […] (Tables 2-3). […] Binding equilibrium dissociation constants (KD) and dissociative half-lives (t_{1/2}) were calculated from the kinetic rate constants as: KD [M]=kd/kₐ; and t_{1/2}(min)=(ln2/(60*kd). Calculations were performed using BiacoreT200 evaluation software v1.0.

hRET.mFc [2] = target: T3, hRET.mFc (human); experiment: SPR Biacore T200, mAb capture, 37 C
T3 construct: also called dimeric human RET
Description: as §1

[3] = target: T1, Macaca fascicularis (mf) RET.mmh; experiment: SPR Biacore T200, mAb capture, 37 C
Description: as §1

hRET.mmh [4] = target: T2, hRET.mmh; experiment: SPR Biacore T200, mAb capture, 25 C
Description: as §1

hRET.mFc [5] = target: T3, hRET.mFc; experiment: SPR Biacore T200, mAb capture, 25 C
Description: as §1

[6] = target: T1, Macaca fascicularis (mf) RET.mmh; experiment: SPR Biacore T200, mAb capture, 25 C
Description: as §1

hRET.mmh [7] = target: T2, hRET.mmh; experiment: competition sandwich ELISA: 1 nM biot-hRET.mmh + antibody, plate-coated GDNF/GFRα1 co-complex
Description: The ability of anti-RET antibodies to block the binding of human RET to pre-complexed plate bound GDNF:GFRα1 was assessed using a competition sandwich ELISA.
Antibody-RET mixtures were incubated for 1 hour at RT and then transferred to microtiter plates previously coated with the hGDNF/hGFRα1 co-complex. Binding was allowed to proceed for 1 hr at RT followed by extensive washing. […] Plates were read at 450 nm and data analysis used a sigmoidal dose-response model within Prism™ software.
The absorbance values of the wells containing the highest concentration for each antibody were used to determine the blocking percent at maximum concentration antibody tested.

Binder	Kd (hRET.mmh [1]) [nM]	koff (hRET.mmh [1]) [s⁻¹]	kon (hRET.mmh [1]) [M⁻¹ s⁻¹]	t½ (hRET.mmh [1]) [min]	Kd (hRET.mFc [2]) [nM]	koff (hRET.mFc [2]) [s⁻¹]	kon (hRET.mFc [2]) [M⁻¹ s⁻¹]	t½ (hRET.mFc [2]) [min]	Kd [3] [nM]	koff [3] [s⁻¹]	Kd (hRET.mmh [4]) [nM]	koff (hRET.mmh [4]) [s⁻¹]	kon (hRET.mmh [4]) [M⁻¹ s⁻¹]	t½ (hRET.mmh [4]) [min]	Kd (hRET.mFc [5]) [nM]	koff (hRET.mFc [5]) [s⁻¹]	kon (hRET.mFc [5]) [M⁻¹ s⁻¹]	t½ (hRET.mFc [5]) [min]	% Max Blocking (hRET.mmh [7]) [%]	IC50 (hRET.mmh [7]) [nM]	other results
H4H8083P (antibody, human IgG4, V domains shown, human IgG4 Fc (H4H prefix)) VH: QVQLVESGGGVVQPGRSLRLSCAASGFTFNNYVMHWVRQAPGKGLEWVALIWYDGSNKYYADSVKGRFTISRDNSKNALNLQMNSLRAEDTAVYFCARVSIAARNYYYGGLDVWGQGTTVTVSS VL: EIVLTQSPGTLSLSPGERATLSCRASQSVSSTYLAWYQQKPGQAPRLLIYGASSRATGIPDRFSGSGSGTDFTLTISRLEPEDFAVYYCQHYGGSPLTFGGGTKVEIK	9.04	0.00255	282000	5	3.02	0.0008	264000	14	14.2	0.004	2.52	0.000484	192000	24	1.14	0.000224	197000	52	95	< 0.25	kon [3]: 283000 M⁻¹ s⁻¹; t½ [3]: 3 min; Kd [6]: 3.44 nM; koff [6]: 0.000711 s⁻¹; kon [6]: 207000 M⁻¹ s⁻¹; t½ [6]: 16 min
H4H8080P (antibody, human IgG4, V domains shown, human IgG4 Fc (H4H prefix)) VH: EVQLVESGGGLVQSGGSLRLSCVASGFTFSTYAMTWVRQAPGRGLEWVSAISGSGASTYYADSLKGRFTVSRDNSKNTLYLQMNSLRAEDTAVYYCSKDHRNYDSDYDMDVWGQGTTVTVSS VL: DIQMTQSPSSLSASVGDRVTITCRASQGIRNYLGWYQQKPGKAPKRLIYTASSLQSGVPSRFRGSGSGTEFTLTISSLQPEDFATYYCLQHNSYPYTFGQGTKLEIK	9.35	0.00267	285000	4	3.98	0.00107	269000	11			2.38	0.000502	211000	23	1.32	0.000242	183000	48	82	< 0.25	binding result [6]: no binding
H4H8084P (antibody, human IgG4, V domains shown, human IgG4 Fc (H4H prefix)) VH: QVQLVESGGGVVQPGRSLRLSCEASGFTFRNYGMHWVRQAPGKGLDWVSTIYYDGSDEYYSDSVKGRFTISRDNSKNTLYLQMNSLRAEDTAVYYCARDPPSFRYFDYWGQGTLVTVSS VL: DIQMTQSPSTLSASVGDRVTITCRASQSIRSWLTWYQQKPGKAPKVLIYKASTLERGVPSRFSGSGSGTEFTLTISSLQPEDFATYYCHQYSSYSYTFGQGTKLEIK	1.56	0.00165	1.06e+06	7	0.809	0.00085	1.05e+06	14	1.76	0.00178	0.518	0.000375	723000	31	0.284	0.000204	720000	57	96	< 0.25	kon [3]: 1.01e+06 M⁻¹ s⁻¹; t½ [3]: 6 min; Kd [6]: 0.565 nM; koff [6]: 0.000393 s⁻¹; kon [6]: 695000 M⁻¹ s⁻¹; t½ [6]: 29 min
H4H8085P (antibody, human IgG4, V domains shown, human IgG4 Fc (H4H prefix)) VH: QVQLVESGGGVVQPGRSLRLSCTASGFTFDNYGMHWVRQAPGKGLEWVAVISYDGSNTFYADSVKGRFTISRDNSKNALYLQMNSLRAEDTAVYYCAKDLEFDILIGYPFDSWGRGTLVTVSS VL: DIQLTQSPSFLSASVGDRVTITCWASQDISRYLAWYQQKPGKAPNLLIYAASTLQSGVPSRFSGSGSGTEFTLTINSLQPEDFATYYCQQLFSYPRTFGQGTKVEIK	6.23	0.000897	144000	13	5.5	0.00055	99000	21	8.3	0.00126	2.34	0.000187	80100	62	1.33	0.000125	94000	92	96	< 0.25	kon [3]: 152000 M⁻¹ s⁻¹; t½ [3]: 9 min; Kd [6]: 3.4 nM; koff [6]: 0.000225 s⁻¹; kon [6]: 66000 M⁻¹ s⁻¹; t½ [6]: 51 min
H4H8066P (antibody, human IgG4, V domains shown, human IgG4 Fc (H4H prefix)) VH: EVQLVESGGGLVQPGGSLRLSCEASGFTFSRYAMTWVRQAPGKGLEWVSGISGSGGSTFYVDSLQGRFTLSRDNSKHTLFLQMNSLRAEDTAIYYCAKENTYGHFDYWGQGTLVTVSS VL: DIQLTQSPSFLSASVGDRVTITCWASQDISTYLAWYQQKPGKAPQVLIYAASSLQYGVPSRFSGSGSGTEFTLTITSLQPEDFATYYCQQLIGYPYIFGQGTKLEIK	5.43	0.00106	195000	11	1.28	0.000335	262000	34	39.4	0.00323	2.02	0.000257	127000	45	0.58	0.00012	207000	96	57	0.41	kon [3]: 81900 M⁻¹ s⁻¹; t½ [3]: 4 min; Kd [6]: 13.7 nM; koff [6]: 0.000882 s⁻¹; kon [6]: 64300 M⁻¹ s⁻¹; t½ [6]: 13 min
H4H8067P (antibody, human IgG4, V domains shown, human IgG4 Fc (H4H prefix)) VH: QVQLVESGGGVVQPGRSLRLSCVASGFTFSNYGMHWVRQAPGKGLEWVALIWYDGSNKYFADSVKGRFTISRDNSKRMMFLEMNSLRAEDTAIYYCTRDRLFDFWGQGTLVTVSS VL: AIQMTQSPSSLSASVGDRVSITCRASQDIRHDLGWFHQKPGKAPKLLIYAASTLQSGVPSRFGGSGSGTDFTLTITSLQPEDFGTYYCLQDYNYPATFGQGTRLEIK	7.31	0.00116	159000	10	2.24	0.000458	204000	25	196	0.0603	2.12	0.000235	111000	49	0.94	0.000158	168000	73	95	< 0.25	kon [3]: 307000 M⁻¹ s⁻¹; t½ [3]: 0.2 min; Kd [6]: 385 nM; koff [6]: 0.0415 s⁻¹; kon [6]: 108000 M⁻¹ s⁻¹; t½ [6]: 0.3 min
H2M7086N (antibody, mouse IgG2, V domains shown, human variable domains with mouse IgG2 Fc (H2M prefix)) VH: QVQLVESGGGVVQPGRSLRLSCVVSGFTFSNYGMHWVRQGPGRGLEWLALIWYDGSDKYYAESVRGRFTISRDNSKNTVYLQMNSLRAEDTAMYYCTRDRIFDYWGQGTLVTVSS VL: AIQMTQSPSSLSASVGDRVTITCRASQDIRNDLGWYQHNPGKAPNLLIYAASTLQIGVPSRFRGSGSGTDFTLTISSLQPEDFATYYCLQDFDYPLSFGGGTKVEIR																			96	0.33	
H4H7086N (antibody, human IgG4, V domains shown, human IgG4 Fc form of 7086N; also called H4H7086P) VH: QVQLVESGGGVVQPGRSLRLSCVVSGFTFSNYGMHWVRQGPGRGLEWLALIWYDGSDKYYAESVRGRFTISRDNSKNTVYLQMNSLRAEDTAMYYCTRDRIFDYWGQGTLVTVSS VL: AIQMTQSPSSLSASVGDRVTITCRASQDIRNDLGWYQHNPGKAPNLLIYAASTLQIGVPSRFRGSGSGTDFTLTISSLQPEDFATYYCLQDFDYPLSFGGGTKVEIR																			97	0.39	
